Experimental data published in EP4722248A1 (Shionogi & Co., Ltd, dated 2026).

Columns and labels:
human CCR8 [1] = biological target: T1, human CCR8 (human, UniProt P51685 1-355); test: cell-based or functional assay
human CCR8 [2] = biological target: T1, human CCR8; test: cell-based or functional assay; remark: listed apart in the source

T1 sequence (P51685 whole entry): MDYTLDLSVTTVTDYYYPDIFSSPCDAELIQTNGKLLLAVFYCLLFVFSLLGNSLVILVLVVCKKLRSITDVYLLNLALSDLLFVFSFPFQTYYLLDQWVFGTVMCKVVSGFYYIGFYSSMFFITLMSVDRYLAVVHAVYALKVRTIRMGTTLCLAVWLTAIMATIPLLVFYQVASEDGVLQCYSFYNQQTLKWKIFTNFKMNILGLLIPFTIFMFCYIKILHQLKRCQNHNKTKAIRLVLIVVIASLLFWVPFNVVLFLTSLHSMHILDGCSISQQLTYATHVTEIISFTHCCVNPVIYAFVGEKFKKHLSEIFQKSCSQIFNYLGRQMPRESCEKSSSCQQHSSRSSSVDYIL

Binder	EC50 of killing rate; hCCR8/FLuc/Rat-1 target cells, activated PBMC effectors, E/T 3:1 (human CCR8 [1])	EC50 of cytotoxic activity, luciferase; hCCR8/Fluc/Rat-1 target cells, mouse spleen-derived CD8-positive T cell effectors, antibody 10 pM-10 nM (human CCR8 [2])
B6-CD3-3 (bispecific antibody) EVQLVESDGGLVQPGRSLKLSCAASGFTFSDYYMAWVRQAPTKGLEWVATITYDVYSTYYRDSVKGRFTISRDNAKSTLYLQMDSLRSEDTATYYCARHGGDGYNSGNWFAYWGQGTLVTVSSGGGGSGGGGSGGGGSDIVLTQSPALAVSLGQRATISCRASQSVSISRYNIMHWYQQKPGQQPKLLIYRASNLASGIPARFSGSGSGTDFTLTINPVQADDIATYYCQQSRESPPTFGGGTKLELKRAANASEVQLVESGGGLVQPGGSLRLSCAASGFTFSTYAMNWVRQAPGKGLEWVGRIRSKYNNYATYYADSVKGRFTISRDDSKNTLYLQMNSLRAEDTAVYYCVRHGNFGDSYVSWFAYWGQGTLVTVSSGKPGSGKPGSGKPGSGKPGSQAVVTQEPSLTVSPGGTVTLTCGSSTGAVTTSNYANWVQQKPGKSPRGLIGGTNKRAPGVPARFSGSLLGGKAALTISGAQPEDEADYYCALWYSNHWVFGGGTKLTVLHHHHHH	1.62 pM	–
B6-mCD3 (bispecific antibody) EVQLVESDGGLVQPGRSLKLSCAASGFTFSDYYMAWVRQAPTKGLEWVATITYDVYSTYYRDSVKGRFTISRDNAKSTLYLQMDSLRSEDTATYYCARHGGDGYNSGNWFAYWGQGTLVTVSSGGGGSGGGGSGGGGSDIVLTQSPALAVSLGQRATISCRASQSVSISRYNIMHWYQQKPGQQPKLLIYRASNLASGIPARFSGSGSGTDFTLTINPVQADDIATYYCQQSRESPPTFGGGTKLELKRAANASEVQLVESGGGLVQPGKSLKLSCEASGFTFSGYGMHWVRQAPGRGLESVAYITSSSINIKYADAVKGRFTVSRDNAKNLLFLQMNILKSEDTAMYYCARFDWDKNYWGQGTMVTVSSGGGGSGGGGSGGGGSDIQMTQSPSSLPASLGDRVTINCQASQDISNYLNWYQQKPGKAPKLLIYYTNKLADGVPSRFSGSGSGRDSSFTISSLESEDIGSYYCQQYYNYPWTFGPGTKLEIKHHHHHH	–	62.3 pM
